Data reported in US11306137B2, “Antibody binding agents that bind Acinetobactor and uses thereof” (priority 2015, dated 2022).
“Also recorded” adds a separate entry of the source.

Key:
A. baumannii HUMC1 [1] = assay: Lethal bloodstream (i.v. tail-vein) infection model, survival; format: in vivo, mice; conditions: for protection against infection (survival): 2×10^7 HUMC1 i.v., treated once i.v., FIG. 2; for survival: HUMC1 i.v., FIG. 3 / FIG. 7B
Protocol: (§1) To determine if C8 could treat, inhibit and/or prevent A. baumannii induced sepsis, mice were infected i.v. via the tail-vein with 2×10^7 hyper-virulent A. baumannii HUMC1 and were treated once i.v. with either protein-G purified C8 mAb (approximately 10 or 20 μg doses) or an isotype-control antibody in a saline buffer. […] In a second experiment, mice were similarly infected and the C8 MAb was administered once i.v. in saline buffer at a low (5 μg) and very low (0.5 μg) dose.
(§2) Male C3HeB/Fe mice (Jackson Labs) between the ages of 7-10 wk were used for all experiments. All animal work was conducted following approval by the Institutional Animal Use and Care Committee at the University of Southern California, in compliance with the recommendations in the Guide for the Care and Use of Laboratory Animals of the National Institutes of Health.
(§3) For the bloodstream infection model, mice were infected intravenously via the tail-vein with designated inocula of A. baumannii isolates. An oropharyngeal model of aspiration pneumonia that recapitulates hospital- or ventilator-associated pneumonia (VAP) relevant to ICU populations was used. In brief, mice were sedated with isoflurane, hung by their maxillary incisors, tongues held to prevent swallowing, and 50 μL of bacterial inocula was placed in the trachea to allow inoculation of the organisms into the lungs by reflexive aspiration.

A. baumannii HUMC1 [2] = assay: Oropharyngeal aspiration pneumonia model, survival; format: in vivo, mice; conditions: for survival: oropharyngeal aspiration of HUMC1
Protocol: as §1, §2, §3

A. baumannii HUMC1 [3] = assay: In vitro complement susceptibility (bacterial growth in mouse serum); format: cell-based; conditions: heat-inactivated or complement-active CD-1 mouse serum; FIG. 6A
Protocol: Overnight cultures of A. baumannii were subcultured to log-phase, washed in PBS, and resuspended at 1×10^6 CFUs/mL in 3 mL HBSS containing 50% CD-1 mouse serum that had been either heat-inactivated at 57° C. for 30 minutes or not. Tubes were shaken (200 rpm) for 2 hr at 37° C. and bacterial expansion was quantified by serially diluting cultures on TSA plates and counting CFUs.

[4] = test system: A. baumannii HUMC1 uptake by RAW 264.7 macrophages; assay: Opsonophagocytosis assay (macrophage uptake); format: cell-based; conditions: FIG. 6B
Protocol: RAW 264.7 macrophages (1×10^6 per well) were grown on coverslips in 12-well plates and stimulated with 100 U/mL IFN-γ. Cells adhered to the cover glass overnight in a humidified incubator at 37° C. supplemented with 5% CO2. Cells were washed three times with HBSS and bacteria were added to wells at a ratio of 10:1, bacteria to macrophages, in the presence (or absence) of 10% fetal bovine serum (FBS), either heat-inactivated or complement-active. Plates were briefly centrifuged at 250×g to cohere the bacterial cells to the bottom of the plate and incubated at 37° for 2 hr. Macrophages were washed three times with PBS, fixed with 100% methanol, and Hema 3-stained according to the manufacturer's protocol (Fisher Scientific). To quantitate bacteria counts per macrophage, coverslips were imaged on a Zeiss Axiolmager microscope. Macrophages harboring visible adherent or internalized bacteria were counted and divided by total macrophages to determine the percentage of cells with associated bacteria. The number of bacteria associated with each macrophage was also quantitated and recorded. A minimum of 100 cells per coverslip were counted.

A. baumannii HUMC1 [5] = assay: Immunogold transmission electron microscopy; format: binding; conditions: 40,000× magnification
Protocol: Mid-log-growth A. baumannii cultures were washed twice incubated with primary antibody (200 μg/mL) at room temperature for 30 min, washed three times in PBS, and resuspended in 50 μL PBS. Goat anti-mouse IgG 20 nm Gold Conjugated (TedPella Inc.) was added to each tube at a final concentration of 0.8 μg/mL and incubated at room temperature for 30 min. Bacteria were washed, pelleted, and resuspended in 500 μL of half-strength Karnovsky's Fixative (2% paraformaldehyde and 2.5% gluteraldehyde in 0.1M phosphate buffer) for 2 hours at room temperature. Following incubation, the pellet was dislodged from the bottom of the tube using a bent stick and allowed to sit in fixative overnight. After overnight fixation, fixative was carefully aspirated off and 1 mL of PBS was carefully added to the tube in order to prevent agitation of the pellet. The pellet was then post-fixed in 1% Osmium Tetroxide for 1 hour and stained with 1% Uranyl Acetate overnight. The pellet was then put in 15% BSA for 2 hours and subsequently subjected to another treatment with the half-strength Karnovsky's Fixative to harden. Pellets were washed in water, dehydrated, embedded in Epon, sectioned, and placed on copper grids. Electron Micrographs were taken on a JEOL JEM-2100 Microscope operating at 80 kV.

[6] = test system: pili preparations from A. baumannii; assay: Western blot of pili preparations (proteinase K or periodate treated); format: binding
Protocol: Since it appeared that C8 bound to the pili on the surface of the bacteria, an established protocol was to sheer pili off the bacteria in an attempt to more accurately determine the epitope targeted by C8. To distinguish protein from carbohydrate targets, the pili preparation was divided into three portions: one fraction was treated with proteinase K, one fraction was treated with periodate to degrade carbohydrates, and one fraction was untreated. The pili preparations were run in a western blot and stained with C8 or isotype control MAb.

A. baumannii HUMC1 [7] = assay: Lethal bloodstream (i.v. tail-vein) infection model, survival; format: in vivo, mice; conditions: for protection against infection (survival): 100% lethal inoculum HUMC1 i.v., immediate treatment, FIG. 7A
A. baumannii HUMC1 [8] = assay: Blood bacterial density, plasma cytokines and sepsis biomarkers after i.v. infection
[9] = 22 hr post-infection, relative to controls

B1: C8: mouse IgG1-kappa monoclonal antibody from hybridoma 9.1C8 (ATCC PTA-122177); light chain SEQ ID NO:2, heavy chain SEQ ID NO:3 (antibody, listed as Mus musculus, V domains shown)
VH: EVQLQQSGPELVKPGASVKISCKASGYSFTGYTMNWVKQSHGKSLEWIGRINPYNGDSFYNQKFKGKATLTVDKSSNIAHMEFLSLTSEDSAVYYCGRSGDGPWFAYWGQGTLVTVSA
VL: LPLSLPVSLGDQASISCRSSQSIVHNNGNTYLEWYLQKPGQSPKLLIYKVSNRFSGVPDRFSGSGSGTDFTLKISRVEAEDLGVYYCFQGSHVPLTFGAGTKLEIKGSRS
protection against infection (survival) (A. baumannii HUMC1 [1]; approximately 10 μg): 100% | protection against infection (survival) (A. baumannii HUMC1 [1]; approximately 20 μg): 100% | survival (A. baumannii HUMC1 [1]; 0.5 μg once i.v. immediately): markedly improved survival; also recorded: significantly improved survival | survival (A. baumannii HUMC1 [1]; 5 μg once i.v. immediately): markedly improved survival; also recorded: fully protective | survival, delayed treatment (A. baumannii HUMC1 [2]; lung model, therapy administered 4 hr post-infection): fully protective | survival (A. baumannii HUMC1 [2]; 5 μg i.v., FIG. 4 / FIG. 9A): nearly fully protective; also recorded: markedly improved survival | survival (A. baumannii HUMC1 [2]; 50 μg i.p., FIG. 9B): fully protective | impact on bacterial growth in vitro (A. baumannii HUMC1 [3]): minimal impact | macrophage uptake of A. baumannii ([4]; C8 5 μg/mL, heat-inactivated or complement-active serum): markedly increased; also recorded: markedly improved macrophage uptake | macrophage uptake of A. baumannii with active complement ([4]; C8 MAb plus normal serum with active complement): highest uptake; also recorded: enhancement was greatest with complement | physical binding site on the bacterial surface by electron microscopy (A. baumannii HUMC1 [5]): bound to the pili on the bacterial surface; also recorded: binding to the pili | western blot signal, periodate treated pili fraction ([6]; periodate treatment (degrades carbohydrates)): eliminated completely | western blot signal, proteinase K treated pili fraction ([6]; proteinase K treatment): unchanged | western blot signal, untreated pili fraction ([6]; untreated): large conglomeration at the top of the gel | epitope / target on A. baumannii ([6]; western blots and flow binding to a capsule-mutant bacterial strain): binds to capsular polysaccharide | protection against infection (survival) (A. baumannii HUMC1 [7]; high dose (approximately 150 μg)): 100% | protection against infection (survival) (A. baumannii HUMC1 [7]; low dose (approximately 50 μg)): 100% | survival, delayed treatment (A. baumannii HUMC1 [7]; i.v. infection, treated i.p. (50 μg) at 30 min post-infection, FIG. 7C): rescued from lethal infection | survival, delayed treatment (monotherapy) (A. baumannii HUMC1 [7]; i.v. infection, treated i.p. at 1 hr post-infection, C8 150 μg, colistin 0.0125 mg/kg, FIG. 7D): not all mice survived; also recorded: minimally improved survival; also recorded: too late | plasma IL-6 (A. baumannii HUMC1 [8]; 2 hr after infection, FIG. 8B): significantly reduced | plasma TNF (A. baumannii HUMC1 [8]; 2 hr after infection, FIG. 8B): significantly reduced | anion gap (A. baumannii HUMC1 [8]; [9]): normal | base deficit (A. baumannii HUMC1 [8]; [9]): normal | blood glucose (A. baumannii HUMC1 [8]; [9]): normal | blood pH (A. baumannii HUMC1 [8]; [9]): normal | serum bicarbonate (A. baumannii HUMC1 [8]; [9]): normal | plasma IL-1β (A. baumannii HUMC1 [8]; 22 hr post-infection, FIG. 8B): virtually undetectable | plasma IL-10 (A. baumannii HUMC1 [8]; 22 hr post-infection, FIG. 8B): virtually undetectable | blood urea nitrogen (BUN) levels (A. baumannii HUMC1 [8]; 22 hr post-infection, FIG. 8C): baseline | physiology (biomarkers of sepsis) (A. baumannii HUMC1 [8]; between 2 and 24 hours, FIG. 8C): maintained baseline physiology | bacterial density in the blood over time (A. baumannii HUMC1 [8]; over the next 20 h, 5 μg i.v., FIG. 8A): continued to decrease | lower bacterial density in the blood than isotype control (A. baumannii HUMC1 [8]; two hours after treatment, 5 μg i.v., FIG. 8A): 1,000 fold
